The results in this text go back to patent publication US11325966.

Some targets named below: 92BR020 D325A (HIV-1); 92BR020 H33OA (HIV-1); 92BR020 N301A (HIV-1); 92BR020 N332A (HIV-1); 92BR020 N386A (HIV-1); 92BR020 N392A (HIV-1); 92BR020 Q328A (HIV-1); 92BR020 R327A (HIV-1); JR-CSF D325A (HIV-1) (UniProt P20871); JR-CSF G324A (HIV-1) (UniProt P20871); JR-CSF H33OA (HIV-1) (UniProt P20871); JR-CSF I326A (HIV-1) (UniProt P20871); JR-CSF N332A (HIV-1) (UniProt P20871); JR-CSF N339A (HIV-1) (UniProt P20871); JR-CSF N386A (HIV-1) (UniProt P20871); JR-CSF Q328A (HIV-1) (UniProt P20871); JR-CSF (HIV-1) (UniProt P20871).

Holding throughout (assay): cell-based or functional assay
Assay [1] has as its target 92BR020 N136A + N156A + N301A (HIV-1).
Assay [2] concerns the target 92BR020 N156A + N332A (HIV-1).
In assay [3] the target is BG505 (T332N) N137A (HIV-1).
Assay [4] concerns the target BG505 (T332N) N156A (HIV-1).
For assay [5], the target named is BG505 (T332N) N295A (HIV-1).
Assay [6] has as its target HIV-1 Env of pseudovirus 1394C9G1(Rev-) (HIV-1).
Assay [7] deals with HIV-1 Env of pseudovirus C3347.H1 (HIV-1).
Assay [8] addresses HIV-1 Env of pseudovirus ZM135M.PL10a (HIV-1).
Assay [9] concerns the target HIV-1 Env of pseudovirus 7030102001E5 (Rev-) (HIV-1).
In assay [10] the target is HIV-1 Env of pseudovirus C3347.c11 (HIV-1).
The target of assay [11] is HIV-1 Env of pseudovirus ZM247v1 (Rev-) (HIV-1).
Assay [12] addresses HIV-1 envelope (Env) of pseudovirus 1056_10_TA11_1826 (HIV-1).
Assay [13] addresses HIV-1 envelope (Env) of pseudovirus 249M B10 (HIV-1).
The target in assay [14] is HIV-1 envelope (Env) of pseudovirus 3415.v1.c1 (HIV-1).
The target in assay [15] is HIV-1 envelope (Env) of pseudovirus 620345.c01 (HIV-1).
The target in assay [16] is HIV-1 envelope (Env) of pseudovirus BJOX015000.11.5 (HIV-1).
Assay [17] concerns the target HIV-1 envelope (Env) of pseudovirus C2101.c01 (HIV-1).
Assay [18] addresses HIV-1 envelope (Env) of pseudovirus CNE21 (HIV-1).
Assay [19] deals with HIV-1 envelope (Env) of pseudovirus CNE30 (HIV-1).
Assay [20] concerns the target HIV-1 envelope (Env) of pseudovirus CNE8 (HIV-1).
The target of assay [21] is HIV-1 envelope (Env) of pseudovirus Ce703010054_2A2 (HIV-1).
The target in assay [22] is HIV-1 envelope (Env) of pseudovirus Du156.12 (HIV-1).
Assay [23] addresses HIV-1 envelope (Env) of pseudovirus HIV-16845-2.22 (HIV-1).
For assay [24], the target named is HIV-1 envelope (Env) of pseudovirus T251-18 (HIV-1).
The target in assay [25] is HIV-1 envelope (Env) of pseudovirus T278-50 (HIV-1).
The target of assay [26] is HIV-1 envelope (Env) of pseudovirus ZM233M.PB6 (HIV-1).
For assay [27], the target named is HIV-1 envelope (Env) of pseudovirus ZM247v1 (Rev-) (HIV-1).
Assay [28] addresses BG505 (T332N) N301A (HIV-1).

Turning to PGT121 (antibody), the IC50 in TZM-bl assay in the assay with 92BR020 D325A (HIV-1) is 0.006 µg/mL; with 92BR020 H33OA (HIV-1) it was 0.003 µg/mL; in assay [1], 0.001 µg/mL; in assay [2] it was greater than 1 µg/mL; with 92BR020 N301A (HIV-1) it was 0.003 µg/mL; with 92BR020 N332A (HIV-1), 0.08 µg/mL. Further, the IC50 in TZM-bl assay was found to be 0.006 µg/mL in the assay with 92BR020 N386A (HIV-1); 0.007 µg/mL with 92BR020 N392A (HIV-1); 0.002 µg/mL with 92BR020 Q328A (HIV-1); 0.001 µg/mL with 92BR020 R327A (HIV-1); 0.002 µg/mL in [3]; 0.007 µg/mL in [4]. Also, the IC50 in TZM-bl assay was 0.014 µg/mL in assay [5]; 0.823 µg/mL in [6]; greater than 10 µg/mL in [7]; 0.73 µg/mL in assay [8]; 0.079 µg/mL in the assay with JR-CSF D325A (HIV-1); 0.044 µg/mL with JR-CSF G324A (HIV-1). The IC50 in TZM-bl assay in the assay with JR-CSF H33OA (HIV-1) was 0.017 µg/mL; with JR-CSF I326A (HIV-1), 0.024 µg/mL; in the assay with JR-CSF N332A (HIV-1) it was greater than 50 µg/mL; with JR-CSF N339A (HIV-1), 0.007 µg/mL; in the assay with JR-CSF N386A (HIV-1), 0.024 µg/mL; with JR-CSF Q328A (HIV-1) it was 0.057 µg/mL. The figures for the IC80 in TZM-bl assay in assay [6], in assay [7] and in [8] were 6.23 µg/mL, greater than 10 µg/mL and 5.73 µg/mL, respectively.
Regarding BG18 IgG (354BG18) (antibody), the IC50 in TZM-bl assay is 0.002 µg/mL in assay [9], greater than 30 µg/mL in assay [10], 0.029 µg/mL in assay [8] and 1.45 µg/mL in assay [11]. For the same substance, the IC80 in TZM-bl assay is 0.008 µg/mL in [9], greater than 30 µg/mL in assay [10], 0.161 µg/mL in [8] and 8.72 µg/mL in [11].
As to BG1 (antibody), the IC50 in TZM-bl assay was 5.43 µg/mL in assay [12]; 1.47 µg/mL in [13]; 14.4 µg/mL in [14]; 0.626 µg/mL in [15]; greater than 30 µg/mL in assay [16]; greater than 30 µg/mL in [17]. The IC50 in TZM-bl assay is greater than 30 µg/mL in assay [18]; greater than 30 µg/mL in assay [19]; greater than 30 µg/mL in [20]; greater than 30 µg/mL in assay [21]; 1.52 µg/mL in assay [22]; greater than 30 µg/mL in [23]. Further, the IC50 in TZM-bl assay is 3.59 µg/mL in assay [24], 19.3 µg/mL in assay [25], greater than 30 µg/mL in assay [26] and greater than 30 µg/mL in [27]. Besides, the IC80 in TZM-bl assay in assay [12] was 29.9 µg/mL; in [13], 5.45 µg/mL; in assay [14], greater than 30 µg/mL; in assay [15], 4.23 µg/mL; in assay [16], greater than 30 µg/mL; in [17], greater than 30 µg/mL. Further, the IC80 in TZM-bl assay in assay [18] is greater than 30 µg/mL; in [19] it was greater than 30 µg/mL; in assay [20], greater than 30 µg/mL; in [21], greater than 30 µg/mL; in assay [22], 6.03 µg/mL; in assay [23], greater than 30 µg/mL. Also, the IC80 in TZM-bl assay was 18 µg/mL in assay [24], greater than 30 µg/mL in assay [25], greater than 30 µg/mL in [26] and greater than 30 µg/mL in assay [27].
In the case of 354BG8 (antibody), the IC50 in TZM-bl assay with 92BR020 D325A (HIV-1) is 0.006 µg/mL; in the assay with 92BR020 H33OA (HIV-1), 0.018 µg/mL; in assay [1], 0.001 µg/mL; in assay [2], greater than 50 µg/mL; with 92BR020 N301A (HIV-1), 0.009 µg/mL; in the assay with 92BR020 N332A (HIV-1), greater than 50 µg/mL. The IC50 in TZM-bl assay amounted to 0.012 µg/mL with 92BR020 N386A (HIV-1); 0.023 µg/mL in the assay with 92BR020 N392A (HIV-1); 0.018 µg/mL with 92BR020 Q328A (HIV-1); 0.011 µg/mL with 92BR020 R327A (HIV-1); 0.003 µg/mL in assay [3]; 0.008 µg/mL in [4]. For the same substance, the IC50 in TZM-bl assay is 0.009 µg/mL in assay [5]; 0.004 µg/mL in assay [28]; 0.031 µg/mL in assay [6]; greater than 10 µg/mL in assay [10]; 0.009 µg/mL with JR-CSF (HIV-1); 0.005 µg/mL with JR-CSF D325A (HIV-1). For the same substance, the IC50 in TZM-bl assay is 0.005 µg/mL with JR-CSF G324A (HIV-1); 0.05 µg/mL with JR-CSF H33OA (HIV-1); 0.005 µg/mL with JR-CSF I326A (HIV-1); greater than 50 µg/mL in the assay with JR-CSF N332A (HIV-1); 0.01 µg/mL with JR-CSF N339A (HIV-1); 0.012 µg/mL in the assay with JR-CSF N386A (HIV-1). The same substance gave an IC50 in TZM-bl assay in the assay with JR-CSF Q328A (HIV-1) of 0.023 µg/mL. The IC80 in TZM-bl assay in assay [6] was 0.093 µg/mL; in assay [10], greater than 10 µg/mL.
